Reference: the DeepSol protein solubility set

Assay: soluble on expression in E. coli; label from the status in PepcDB or PDB records

| Sequence | soluble on expression in E. coli |
| --- | --- |
| MYAKANNRTVLSFSEQQIIDCGNFTSPCQENILSHEFIKKNGVVTEADYPYVGKENEKCKYDENKIKLWPTNMLLVGNLPETLLKLFIKEHGPGYFRMKAPPSFFNYKTGIYSPTQEECGKATDARSLTIVGYGIEGGQNYWIVKGSFGT | not soluble |
| MGSDKIHHHHHHMKRFLFSFLFGLVLLSGCDFEHEIIEILDMIVSEDQSTDVVAPPTSGEATITFFDVGQGDSTLIRSENYTVLVDTGRHDSDAIFTHLEKQQIDQIDLLILTHPHADHIGNADEIVRLYSPEEVWIDGNEATSKTFENVIDALLDSEAEVVEPRAGDVYERGDFLFEIVNPTKLTGDLNNDSIAFRLTYGDVRVVMTGDAEEAAEQEMVASGTDLEADIFKVAHHGSSTSNQPFFLDEIEPTVAIYSAGEDNSYGHPHREVTSLLNERGIDIFGTDIHGTVLITTDGHTYSIQTEH | not soluble |
| MSLAREDYAAQVALLVRVLPYVAKEEIFALKGGTAINLFYRDLPRLSVDIDLTYLPVKDRAESLVEINDAMDRIAAAIEGGITGAKAQRIAGGGGGATRALARLGTAEIKIETSPVTRGVVHDPEQREVSEAVEEEFGYATMNIVSFEDLFGGKLHAALDRQHPRDLYDVKLLYENEGFTDELFRTFLIYVASSPRPPHELLNPNLIDLDQPYAREFEGMTKEAVDLAELIATRDRLIGDIQSRLNDDAKRFLRTLHEGDPDFDAIDRPQGAGLPAVRWKLINVNNPNKNAQAAFTGAVVELLPFCGEGHHHHHH | not soluble |
| MAHHHHHHMKCVVCDADKAGYRCRACRSAYCSSQCYRKHRMSREEAAAQVANINAATSSFAHLCETVVAAQRPQKELDEKRQRTEAEADVFSDVSREKVAAAGAVHGSENDAPPPSTAPAVETAWKTATGASEASGPACAEPQPSARTEYAGDSDAVYILQEKHLGALAHDPRVRSALRSPSLQKLIKTIDSSRSRLDALEAAQYNNADFKGFCDAVLRVIAEVEGR | soluble |
| MKLFQPSEIVTSLPTQFFASLVAKVNKVVAAGHDVINLGQGNPDQPTPQHIVKALQDAAEKTIHHKYPPFRGHESLKEAVATFYQREYDVVVNPKTEVAILFGGKAGLVELPVCFTNPGDTILVPDPGYPDYLSGVALAKAQFETMPLIAENNFLPDYTKIDDSIAERAKLMFLNYPNNPTGATASKDFFDETIHFANKHNILVVHDFAYGAIGFDGQKPVSFLQADGAKDTGIEIYTLSKTFNMAGWRIAFAVGNESVIETINLLQDHMYVSIFGAIQDAAREALLSSQSCVIDLVNSYESRRNALISACHSIGWNVDIPTGSFFAWLPVPEGYTSEQFSDILLEKAHVAVAPGVGFGEHGEGYVRVGLLHTEDRLREAINRIDKLNFFKK | not soluble |
| GNPLRKFKLVFLGEQSVGKTSLITRFMYDSFDNTYQATIGIDFLSKTMYLEDRTVRLQLWDTAGLERFRSLIPSYIRDSTVAVVVYDITNVNSFQQTTKWIDDVRTERGSDVIIMLVGNKTDLADKRQVSIEEGERKAKELNVMFIETSAKAGYNVKQLFRRVAAALPGMESTQDRSREDMIDIKLEK | soluble |
| DVKVQGCVEDADLLIVGFGGTYGHLYSAMEEMNHAGKKVALAHFVHLNPLPHNTAEVLKKYKKVVVAEQNLGQFAGYLRMKVDGFVPYQFNEVKGQPFVVSELVDAFTEILNK | not soluble |
| MSLADRLTIGEFSRITHLSIRMLRRYHEQDLLVPAEVDPDTGYRYYSPAQIRPALTVRRFRDLDLPLADLRRFLAAESADGPDDGTAQQVVAAHLRRLEDRLGRTQRAVEVLRELLDPEAERAVTLEELPARRVLAVTLDVPEGAGLDWYDEAMCDVDSAAGERSVLPPGGRYEHTLFTEGHGRATVYVPFEAPLPPEMPGRVRELHLPRRTAAVATHQGRHDDLDLTYGAVGSFAARNDLRSQDLVEEVYLVGPRDTDRPELWRTLVAWLIAPENEGHHHHHH | soluble |
| SALSSCASLLGSPLSNDFMVLSLSDLLTPWEVIRKRAEAAAILDLVTVIYNPRGSRFPNNLEKVMEYFLKYRSGDTPVGIVRNAYRPDQSAKIVQLKDFSCSEIDMLTTVIIGNSETY | not soluble |
| MSLSFTSTIKVVIADDHAILREGLKQILAETEDIEVVADAKNAAEAIKLAGTKGLDVVVLDISLPDRSGIEACNIIKKEHPGVAVLMLSMHREDAYAIRALRAGAVGYLSKQSASDQLVTAIRTVAKGKKYISAEVALALADQVSGGLEKPIHDTLSNREFQTLTMIASGLSVSEIAENLSLSVKTVSMYRARLLEKLNLRHNAELTHYAIKNNLIDEGHHHHHH | soluble |
| MNKKQRDEISKLLSYVLRHAPESMGLTLDRDGWCEVDELVGKANANGHSFDRQALEEVVETNEKKRFTLSEDGQRIRAAQGHSTEQVQVQHIEKEPPAWLYHGTASRFMASIETQGLIAGSRHHVHLTEDPETALSVGKRYGQPVLLAVDAKGMFEAGVQFFQADNGVWLVEAVPIEWLTKVADTVSLEHHHHHH | soluble |
| MAHHHHHHMANAELVDAGCFITQMNELLLIDPLYINCTMTNYCNSYISGKEKLLPRERLNGIYFKNAKPGLWSSFAIRENNQACLKKTSNQETETDAENRNNNNSYNNVRNEMVLSFICFNNTEYMHEYLTVEKVDKLKWEKVKPNESHLRVGQADQYNSTVNIEYKNEKTGIFHHNKNELLPLENYFTNVLTIESGQVGLFCMESIKHSADLLFQKHEMNNISNKEELDNLFNQNMNDLYPWFEKICNLTLSSSVAVVDFIDMPIGCVCLSSSDCVVNYLCEVVRDEVTDEVWAIRVNFLSPLK | soluble |
| MPPADGTSQWLRKTVDSAAVILFSKTTCPYCKKVKDVLAEAKIKHATIELDQLSNGSAIQKCLASFSKIETVPQMFVRGKFIGDSQTVLKYYSNDELAGIVNESKYDYDLIVIGGGSGGLAAGKEAAKYGAKTAVLDYVEPTPIGTTWGLGGTCVNVGCIPKKLMHQAGLLSHALEDAEHFGWSLDRSKISHNWSTMVEGVQSHIGSLNWGYKVALRDNQVTYLNAKGRLISPHEVQITDKNQKVSTITGNKIILATGERPKYPEIPGAVEYGITSDDLFSLPYFPGKTLVIGASYVALECAGFLASLGGDVTVMVRSILLRGFDQQMAEKVGDYMENHGVKFAKLCVPDEIKQLKVVDTENNKPGLLLVKGHYTDGKKFEEEFETVIFAVGREPQLSKVLCETVGVKLDKNGRVVCTDDEQTTVSNVYAIGDINAGKPQLTPVAIQAGRYLARRLFAGATELTDYSNVATTVFTPLEYGACGLSEEDAIEKYGDKDIEVYHSNFKPLEWTVAHREDNVCYMKLVCRKSDNMRVLGLHVLGPNAGEITQGYAVAIKMGATKADFDRTIGIHPTCSETFTTLHVTKKSGVSPIVSGCCG | soluble |
| MTTLLRLATAGSVDDGKSTLIGRLLYDSKAVMEDQWASVEQTSKDRGHDYTDLALVTDGLRAEREQGITIDVAYRYFATPKRKFIIADTPGHIQYTRNMVTGASTAQLVIVLVDARHGLLEQSRRHAFLASLLGIRHLVLAVNKMDLLGWDQEKFDAIRDEFHAFAARLDVQDVTSIPISALHGDNVVTKSDQTPWYEGPSLLSHLEDVYIAGDRNMVDVRFPVQYVIRPHTLEHQDHRSYAGTVASGVMRSGDEVVVLPIGKTTRITAIDGPNGPVAEAFPPMAVSVRLADDIDISRGDMIARTHNQPRITQEFDATVCWMADNAVLEPGRDYVVKHTTRTVRARIAGLDYRLDVNTLHRDKTATALKLNELGRVSLRTQVPLLLDEYTRNASTGSFILIDPDTNGTVAAGMVLRDVSARTPSPNTVRHRSLVTAQDRPPRGKTVWFTGLSGSGKSSVAMLVERKLLEKGISAYVLDGDNLRHGLNADLGFSMADRAENLRRLSHVATLLADCGHLVLVPAISPLAEHRALARKVHADAGIDFFEVFCDTPLQDCERRDPKGLYAKARAGEITHFTGIDSPYQRPKNPDLRLTPDRSIDEQAQEVIDLLESSS | not soluble |
| MGSDKIHHHHHHMEILQRQLLFKLAVCQGIGNLGILKVLQEAIAQKRVDFSSTEIIRIAEIKKYRELFEQSWLHHTIHSEALYIRQCQHQFMTILDAVYPKLLREIYNPPAILFYRGNLQLLSRRKIGIVGARYATSYGLRVTEALVPKIVKEGFTIVSGLAKGIDSRSHEMAIQNGGQTIGILGTGLDVYYPYEKKELQQTMKQNQLVLTEYVNGSGPKKYHFPARNRIIAGLSLGVCVMEARKNSGSLITAQAAMDYGREVFAVPGSIFQSFSTGCHELIQDGAKCVQTIDDICEEL | not soluble |
| MQDSKIPPFSEAKRMKIPTPKQPLTQLPPRIGKKVSNRSKSNQVHAISHQLEMSPNSDSSPGNEYRALRRKYLLLEEDSFALERELKEAEDEVKALEDEKLELLDKLVVMEGLVDP | soluble |
| MPRPSTCADSGGGMMTTLTARPEAITFDPQQSALIVVDMQNAYATPGGYLDLAGFDVSTTRPVIANIQTAVTAARAAGMLIIWFQNGWDEQYVEAGGPGSPNFHKSNALKTMRKQPQLQGKLLAKGSWDYQLVDELVPQPGDIVLPKPRYSGFFNTPLDSILRSRGIRHLVFTGIATNVCVESTLRDGFFLEYFGVVLEDATHQAGPKFAQKAALFNIETFFGWVSDVETFCDALSPTSFAHIA | not soluble |
| MNMPLISIIMPVYNAECYLNQGILSCLNQSYQNIELILIDDGSTDKSIEIINNIIDKDKRVKLFFTPTNQGPAAARNIGLEKAQGDYITFLDSDDFIANDKLEKQLNFMLQNHLVMTHGNYAFCDLEGNQIKLVTTSKKIDYLTLLQGNQFKIMTVLVERESIKLLRFPNIKHEDYAFFLDCLKEVKQSILYSHQASSFVRIGKVSVSSNKFKSAIWTFNIYFKREKLGVVKSIYYFILYAYNGFIKYKK | not soluble |
| MIYIVGIGPGSRDYVTEKAFDTVETSDFVLGSKRSLEIFEINGERVELTVNLKNELYEFLKNYKNSDSKKKVSILSTGDPCFSGLLKTIFSFDFIEQDDFEVVPGI | not soluble |
| MSDPYPATEAHAQRAAKSPPKSLLDRLLSLVRREPEDREGIKAILEAAHERELLDAESYAMIKGALAVSERTVADIMVPRSRMDLLDISQPLPQLLATIIETAHSRFPVYEDDRDNIIGILLAKDLLRYMLEPALDIRSLVRPAVFIPEVKRLNVLLREFRASRNHLAIVIDEHGGISGLVTMEDVLEQIVGDIEDEFDEDEEESIFPEGENQWRLTASTDISHFNATFATDLPDDEYDSVGGWLGGQLGRIPRRGDSADHDGLHIEVVRADARRALWLRVRRNAGAQPPASAAE | soluble |
| MGSDKIHHHHHHEEDNTELSEEDRVAEMFREAGFKVEKLSSKPVNPPMTEKEASLFLAAYKNRERSGSIQIPSENIELKPDGHLVVKVKCNSEKKNFSRTRTVYKEEFDFTHWATYTVRDIEIECWQDIAGYWKSDNVNCTFTTRDPEYICGFPDINPNTGYSKGSLYFSINITVSRYSGWQIYSVDENYDYTLMLTWLPVAQEWNASLSWHETFW | not soluble |
| MSLKNQIEKLLENFVPEGQQEKTDFKVFQDFAADEKNLNRSSIAHFTASVFVLNESHDKILGIYHKIYQSWGWVGGHADGNADLLAVAVKEVQEETGLRSFKKLSEMPISIEALPVFGHHHRKYGYVSAHIHLNVTFLFEAKESDSLQKNTDETGGLAWIPLEKFSEKSSEKEMRVIYDKIITRIINKEGHHHHHH | soluble |
| MGSDKIHHHHHHMLIEIPNVFSKQEVSHLREQLDARRWIDGNQTSGAMATTRKRNQQLDKDDPVAVALGQQIMDRLLAHPQFVSAALPLQFYPPLFNRYQGGETFGYHIDNAIRSTPDGMIRTDLSATLFLSEPENYQGGELVIQDTYGQQSIKLSAGSLVLYPSSSLHQVTPVLSGERTAAFMWLQSMVRDEGQRRLLFQLDQSIQSLTAQTAAEQELFNLSGVYHNLLRRWSEL | not soluble |
